What all share (format): biochemical, human
Substrate in data set [1]: CCC[C@H](NC(=O)[C@H](C)NC(=O)[C@H](Cc1ccc(O)cc1)NC(=O)[C@@H]1CCCN1C(=O)[C@H](CCCCN)NC(=O)[C@@H]1CCCN1C(=O)[C@H](CCCNC(=N)N)NC(=O)Cc1cc(=O)oc2cc(OC)ccc12)C(=O)N[C@@H](Cc1c[nH]c2ccccc12)C(=O)N[C@@H](CCSC)C(=O)N[C@@H](CCCCNc1ccc([N+](=O)[O-])cc1[N+](=O)[O-])C(N)=O
The experiment in a line: Fluorometric hydrolysis of synthetic Mca/Lys(Dnp) substrates by MMP-2. The settings on record: other: MMP-2, 37° C., pH 7.5. From the text:
(§1) All MMPs were purified in zymogen form. ProMMP-1 (Suzuki et al., Biochem., 29, 10261 (1990)), proMMP-2 (Okada et al., Eur. J. Biochem., 194, 721 (1990)), and proMMP-3 (Ito et al., Arch. Biochem. Biophys., 267, 211 (1988)) were purified from the culture medium of human rheumatoid synovial cells stimulated with rabbit macrophage-conditioned medium. ProMMP-9 was purified from the culture medium of HT-1080 cells as described in Morodomi et al., Biochem. J., 285, 603 (1992). ProMMP-2 and proMMP-9 were activated by reacting with 1 mM 4-aminophenylmercuric acetate at 37° C. for 45 minutes and 32 hours, respectively. ProMMP-1 was activated by reacting with 1 mM 4-aminophenylmercuric acetate and an equimolar amount of MMP-3 at 37° C. for 6 hours. After activation, MMP-3 was completely removed from MMP-1 by affinity chromatography using an anti-MMP-3 IgG Affi-Gel 10 column. The resin, Affi-Gel 10 (Biorad, Emoryville, Calif.), was coupled to anti-MMP-3 IgG (Okada et al., Annals of Rheumat. Dis., 48, 645 (1989)) per the manufacturer's protocol. Pro-MMP-3 was activated by reacting with 5 μg/mL chymotrypsin at 37° C. for 2 hours. Chymotrypsin was inactivated with 2 mM diisopropylfluorophosphate. The amounts of active MMP-1, MMP-2, and MMP-3 were determined by titration with tissue inhibitor of metalloproteinase-1(TIMP1) over a concentration range of 0.1-3 μg/mL, while the amount of active MMP-9 was determined by titration with TIMP-2 (0.1-3 μg/mL). TIMP-1 was isolated from the medium of HT-1080 cells as described in Morodomi et al., Biochem J., 285, 603 (1992).
(§2) Substrates were prepared as 10 mM stock solutions in dimethylsulfoxide (DMSO). Fluorescent assays were performed at λex =325 nm and λem =393 nm, which should encounter no interference from Trp residues, using a Hitachi fluorescence spectrophotometer F-3010. Initial total hydrolysis assays were run at a substrate concentration of […] to avoid filtering effects. The change in fluorescence at this concentration was 110 based on total hydrolysis of 1 μM substrate. A typical assay was carried out by incubating 100 μL of various concentrations of a substrate with 10 μL of an enzyme solution (2-20 nM) in 50 mM Tris-HCl, pH 7.5, 0.15M NaCl, 10 mM CaCl2, 0.05% Brij 35, 0.02% NaN3. The reaction was stopped by addition of 900 μl of 3% (v/v) glacial acetic acid. MMP-3 activity at pH 6.0 was measured in 50 mM sodium acetate buffer, pH 6.0, instead of Tris-HCl buffer. The amount of substrate hydrolysis was calculated based on the fluorescence values of the Mca-Arg-Pro-Lys-Pro-Gln standard solution after substraction of the reaction blank value (stopping solution added before the enzyme). Individual kinetic parameters (kcat and KM) were determined over a substrate concentration range of 2.5-75 μM and calculated by double reciprocal plots.

Substrate in data set [2]: COc1ccc2c(CC(=O)N3CCC[C@H]3C(=O)N[C@@H](CCCCN)C(=O)N3CCC[C@H]3C(=O)N[C@@H](CCC(N)=O)C(=O)N[C@@H](CCC(N)=O)C(=O)N[C@@H](Cc3ccccc3)C(=O)N[C@@H](Cc3ccccc3)C(=O)NCC(=O)N[C@@H](CC(C)C)C(=O)N[C@@H](CCCCNc3ccc([N+](=O)[O-])cc3[N+](=O)[O-])C(=O)NCC(=O)O)cc(=O)oc2c1
Described as above. The settings on record: other: MMP-2, 37° C., pH 7.5.
Description: as §1, §2

Substrate in data set [3]: CCC[C@H](NC(=O)[C@H](C)NC(=O)[C@H](Cc1ccc(O)cc1)NC(=O)[C@@H]1CCCN1C(=O)[C@H](CCCCN)NC(=O)[C@@H]1CCCN1C(=O)[C@H](CCCNC(=N)N)NC(=O)Cc1cc(=O)oc2cc(OC)ccc12)C(=O)N[C@@H](Cc1c[nH]c2ccccc12)C(=O)N[C@@H](CCSC)C(=O)N[C@@H](CCCCNc1ccc([N+](=O)[O-])cc1[N+](=O)[O-])C(N)=O
The experiment in a line: Fluorometric hydrolysis of synthetic Mca/Lys(Dnp) substrates by MMP-1. The conditions noted are these: other: MMP-1, 37° C., pH 7.5.
Description: as §1, §2

Substrate in data set [4]: COc1ccc2c(CC(=O)N3CCC[C@H]3C(=O)N[C@@H](CCCCN)C(=O)N3CCC[C@H]3C(=O)N[C@@H](CCC(N)=O)C(=O)N[C@@H](CCC(N)=O)C(=O)N[C@@H](Cc3ccccc3)C(=O)N[C@@H](Cc3ccccc3)C(=O)NCC(=O)N[C@@H](CC(C)C)C(=O)N[C@@H](CCCCNc3ccc([N+](=O)[O-])cc3[N+](=O)[O-])C(=O)NCC(=O)O)cc(=O)oc2c1
The data set is described as above. The conditions noted are these: other: MMP-1, 37° C., pH 7.5.
Description: as §1, §2

For two proteins, Km, kcat and kcat/Km results are on record in US5770691A, “Discriminatory substrates for MMP hydrolysis” (Regents of the University of Minnesota, priority 1995, dated 1998).

B1: MMP-2 (Homo sapiens) (protein)
chain: YNFFPRKPKWDKNQITYRIIGYTPDLDPETVDDAFARAFQVWSDVTPLRFSRIHDGEADIMINFGRWEHGDGYPFDGKDGLLAHAFAPGTGVGGDSHFDDDELWTLGEGQVVRVKYGNADGEYCKFPFLFNGKEYNSCTDTGRSDGFLWCSTTYNFEKDGKYGFCPHEALFTMGGNAEGQPCKFPFRFQGTSYDSCTTEGRTDGYRWCGTTEDYDRDKKYGFCPETAMSTVGGNSEGAPCVFPFTFLGNKYESCTSAGRSDGKMWCATTANYDDDRKWGFCPDQGYSLFLVAAHEFGHAMGLEHSQDPGALMAPIYTYTKNFRLSQDDIKGIQELYGASPDIDLGTGPTPTLGPVTPEICKQDIVFDGIAQIRGEIFFFKDRFIWRTVTPRDKPMGPLLVATFWPELPEKIDAVYEAPQEEKAVFFAGNEYWIYSASTLERGYPKPLTSLGLPPDVQRVDAAFNWSKNKKTYIFAGDKFWRYNEVKKKMDPGFPKLIADAWNAIPDNLDAVVDLQGGGHSYFFKGAYYLKLENQSLKSVKFGSIKSDWLGC
notes: made in house; host or cells: native secreted protein purified from culture medium of human rheumatoid synovial cells
Consider B1, for which, in data set [1], the Km was 50 µM, the kcat worked out at 2.70 S^-1 and the kcat/Km is reported as 54,000 S^-1 M^-1. For the same protein, in data set [2], the Km is 100 µM, the kcat worked out at 1.07 S^-1 and the kcat/Km is recorded as 10,800 S^-1 M^-1.

B2: MMP-1 (Homo sapiens) (protein)
chain: FVLTEGNPRWEQTHLTYRIENYTPDLPRADVDHAIEKAFQLWSNVTPLTFTKVSEGQADIMISFVRGDHRDNSPFDGPGGNLAHAFQPGPGIGGDAHFDEDERWTNNFREYNLHRVAAHELGHSLGLSHSTDIGALMYPSYTFSGDVQLAQDDIDGIQAIYGRSQNPVQPIGPQTPKACDSKLTFDAITTIRGEVMFFKDRFYMRTNPFYPEVELNFISVFWPQLPNGLEAAYEFADRDEVRFFKGNKYWAVQGQNVLHGYPKDIYSSFGFPRTVKHIDAALSEENTGKTYFFVANKYWRYDEYKRSMDPGYPKMIAHDFPGIGHKVDAVFMKDGFFYFFHGTRQYKFDPKTKRILTLQKANSWFNCRKN
notes: as for B1
Take B2: in data set [3], the Km is 142 µM, the kcat is 0.15 S^-1 and the kcat/Km is reported as 1,060 S^-1 M^-1. Also, in data set [4], the Km worked out at 16.6 µM, the kcat is 0.04 S^-1 and the kcat/Km is reported as 2,510 S^-1 M^-1.
